Source: US20150268247A1, “Assay for Screening of Anti-Viral Compounds That Inhibit Specific Interaction Interfaces Between Cullin5 and an ElonginB/ElonginC/ CBF-beta/HIV-1 Vif Complex” (UNIVERSITY OF ROCHESTER, priority 2012, published 2015)

Tests used:
[1] = molecular target: mEGFP tagged quaternary complexes
[2] = molecular target: mEGFP tagged quaternary complexes; remark: listed apart in the source

Row | Substance | percent quenching [1] | percent decrease in fluorescence (FRET quench) [2]
1 | sREACh-Cul5(N) (sREACh with F46L, Q69M, F223R, flexible linker, human Cul5 residues 2-384 with V341R, L345D) | 20% | –
2 | Cul5(N)-sREACh (human Cul5 residues 2-384 with V341R, L345D, C-terminally tagged with sREACh with F46L, Q69M, F223R) | – | 8%
